The values below come from paper doi:10.1101/041756.

Like-named read-outs stand apart in the source and are kept apart here.

The target in assay [1] is microtubules (human (endogenous in HeLa)) (UniProt P68363).
For assay [2] the target is unchanged. The source holds these as a separate data set.

UniProt P68363, sequence (P68363 whole entry): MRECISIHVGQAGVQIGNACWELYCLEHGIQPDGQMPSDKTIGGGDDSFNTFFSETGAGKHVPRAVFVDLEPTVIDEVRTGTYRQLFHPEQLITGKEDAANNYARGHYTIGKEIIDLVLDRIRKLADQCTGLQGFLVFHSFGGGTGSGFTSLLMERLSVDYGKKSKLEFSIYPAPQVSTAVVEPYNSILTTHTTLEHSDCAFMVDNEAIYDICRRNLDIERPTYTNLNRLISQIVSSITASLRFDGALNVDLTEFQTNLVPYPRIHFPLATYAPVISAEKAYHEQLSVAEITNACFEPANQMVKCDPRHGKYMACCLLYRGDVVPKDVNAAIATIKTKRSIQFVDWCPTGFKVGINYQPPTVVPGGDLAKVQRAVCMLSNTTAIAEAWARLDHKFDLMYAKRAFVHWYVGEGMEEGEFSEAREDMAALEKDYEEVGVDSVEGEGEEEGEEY

With AT8mut-CST (S199A/S202A/T205A), in assay [1], the FRAP in living reporter cells: mobile fraction stood at 57% and the FRAP in living reporter cells: τ2 was 46.8. In assay [2], “Conformational-Sensitive Tau sensor (ECFP-Tau-EYFP, full length Tau-D, 0N4R) (from UniProt P10636-6 1-383)” registered an FRAP in living reporter cells: mobile fraction of 73% and an FRAP in living reporter cells: τ1 of the MTs-bound phase of 30 s. Turning to P301L-CST, in assay [1], the FRAP in living reporter cells: diffusive fraction turned out to be 38% and the FRAP in living reporter cells: mobile fraction came out at 84%. P301S-CST: the FRAP in living reporter cells: mobile fraction in assay [1] was found to be 85%. Still for that read-out and setting: the figure for S422E-CST is 86%.
